The supplement of paper PMC10126150
± gives the standard deviation of the averaged measurements.

Tested on: ATP
Assay: switch fluorescence ratio, 500 uM ATP over buffer (Cy3 cluster intensity, sum of 5 cycles each) (fold (ratio)); higher = stronger signal-on switching upon ATP binding; sequences stand for … in TCGTCGGCAGCGTCAGATGTGTATAAGAGACAGTTTTTTTTTTTTTTTTTTTTTTTTT…TC
Details: aptamer strand: ATP DNA aptamer (quencher-CACCTGGGGGAGTATTGCGGAGGAAGG + anchor), 100 nM annealed; ATP concentration: 500 uM
Method in brief: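 Values give the fluorescence ratio for each switch-domain sequence, averaged from per-cluster ratios of summed target-cycle to summed buffer-cycle Cy3 intensity. The Cy3-labelled switching-strand clusters sat on a modified Illumina MiSeq flow-cell, were annealed to 100 nM quencher-labelled ATP aptamer, and were imaged in selection buffer, then after 15 min with 500 uM ATP at 22 °C. Five cycles ran with NaOH stripping and re-annealing between them, and clusters outside 100-1000 RFU were excluded.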
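Further: ATP exposure 15 min at 22 °C before imaging.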

Sequence | switch fluorescence ratio
CGCCTAAACG | 1.04 ± 0.042
CGCCTCGTAC | 1.9 ± 0.062
CGCCTGGGGT | 1.64 ± 0.92
CGCGAAGGGT | 1.01 ± 0.026
CGCGACCATT | 0.967 ± 0.051
CGCGAGAGTT | 1.02 ± 0.0018
CGCGAGCTTT | 1.015 ± 0.0032
CGCGAGGATG | 1.022 ± 0.0099
CGCGATTTTA | 1.04 ± 0.019
CGCGCGGGTG | 1.121 ± 0.011
CGCGCTGACA | 1.009 ± 0.0057
CGCGGAGCGC | 1.17 ± 0.15
CGCGGAGTGA | 1.002 ± 0.01
CGCGGATGGG | 1.05 ± 0.05
CGCGGCGGGT | 1.02 ± 0.034
CGCGGGAGAG | 1.02 ± 0.04
CGCGGGCGGA | 1.021 ± 0.0044
CGCGGGGCGC | 1.03 ± 0.028
CGCGGGGCGG | 1.02 ± 0.029
CGCGGGGTGC | 1.06 ± 0.097
CGCGGGTATG | 1.05 ± 0.026
CGCGGTAGCG | 0.972 ± 0.041
CGCGGTCAAC | 1.35 ± 0.2
CGCGGTGCTC | 3.17 ± 0.43
CGCGTAAAAT | 1.04 ± 0.035
CGCGTATGTT | 0.985 ± 0.026

Sequence | switch fluorescence ratio
CGCGTCTCCC | 3.58 ± 0.38
CGCGTTTTTG | 1.01 ± 0.014
CGCTACGTGG | 0.99 ± 0.028
CGCTAGGAAA | 1.006 ± 0.0076
CGCTAGGGAC | 1.314 ± 0.003
CGCTATTCGG | 1.04 ± 0.043
CGCTATTTTT | 1.02 ± 0.02
CGCTCATCTG | 0.968 ± 0.052
CGCTCTTGGA | 0.976 ± 0.031
CGCTGACAAG | 0.9916 ± 0.0099
CGCTGATGGG | 1.01 ± 0.071
CGCTGCACAT | 2.21 ± 0.045
CGCTGGCCTT | 0.975 ± 0.016
CGCTGGGATT | 0.9913 ± 0.0057
CGCTGTACAG | 0.96028 ± 0.00038
CGCTGTAGGT | 1.02 ± 0.0058
CGCTTACTTT | 1.24 ± 0.021
CGCTTAGGGT | 1.05 ± 0.07
CGCTTAGTGG | 1.03 ± 0.0027
CGCTTTAGGT | 1.02 ± 0.012
CGCTTTGTGT | 0.973 ± 0.032
CGCTTTTCGT | 1.0023 ± 8e-05
CGCTTTTGGA | 1 ± 0.036
CGGAAAAAGG | 0.992 ± 0.034
CGGAAAGACG | 1.05 ± 0.014
CGGAACTGAA | 1.02 ± 0.072

Sequence | switch fluorescence ratio
CGGAACTGGT | 1.04 ± 0.058
CGGAAGGGGG | 1 ± 0.048
CGGAAGGTAG | 0.962 ± 0.015
CGGAATAGGG | 1.07 ± 0.052
CGGAATGGGG | 1.02 ± 0.015
CGGAATGTAT | 0.992 ± 0.04
CGGAATTGGG | 0.9735 ± 0.0085
CGGACGAAAG | 1.02 ± 0.048
CGGACGGGTT | 0.985 ± 0.019
CGGACTAGGG | 1.04 ± 0.022
CGGACTATAT | 1.07 ± 0.032
CGGACTCGTG | 0.954 ± 0.021
CGGACTGTCA | 1.02 ± 0.016
CGGAGAATGG | 1.11 ± 0.13
CGGAGACGGT | 0.9958 ± 0.0078
CGGAGCAGTG | 1.75 ± 0.055
CGGAGCGACG | 1.03 ± 0.015
CGGAGGACAC | 1.09 ± 0.059
CGGAGGAGGA | 0.993 ± 0.038
CGGAGGGATG | 1.71 ± 0.66
CGGAGGGGCG | 0.963 ± 0.06
CGGAGGGGCT | 1.03 ± 0.015
CGGAGGGGGG | 1.03 ± 0.062
CGGAGGGTGG | 0.961 ± 0.041
CGGAGTATAT | 1.87 ± 0.11
CGGAGTTATC | 1.35 ± 0.2

Sequence | switch fluorescence ratio
CGGAGTTGAA | 1.07 ± 0.027
CGGATAGTCA | 1.042 ± 0.0078
CGGATCGACT | 0.977 ± 0.02
CGGATGAGGA | 0.984 ± 0.01
CGGATGATGA | 1.02 ± 0.089
CGGATGGAAA | 0.964 ± 0.02
CGGATGGCC | 0.965 ± 0.036
CGGATTTATC | 1.01 ± 0.033
CGGATTTCAG | 0.951 ± 0.03
CGGCAAAGTA | 0.972 ± 0.065
CGGCAGGCTC | 1.19 ± 0.053
CGGCAGGTTT | 0.992 ± 0.016
CGGCATGGTG | 0.98 ± 0.02
CGGCCAGGAA | 1.05 ± 0.024
CGGCCGGAGT | 0.983 ± 0.0086
CGGCGATCGG | 0.99 ± 0.013
CGGCGCACAG | 1.31 ± 0.051
CGGCGCTGGA | 1.01 ± 0.055
CGGCGGCCCT | 1.005 ± 0.0092
CGGCGGGAGT | 1.019 ± 0.0073
CGGCGGGGAG | 1 ± 0.044
CGGCTAGAAG | 0.994 ± 0.038
CGGCTAGGGG | 1.02 ± 0.037
CGGCTAGTGC | 1.05 ± 0.042
CGGCTCGTTT | 1.049 ± 0.0079
CGGCTCTCTT | 1.009 ± 0.0017

Sequence | switch fluorescence ratio
CGGCTGCGGG | 0.978 ± 0.022
CGGCTGGACG | 0.958 ± 0.047
CGGCTGGCGG | 0.997 ± 0.026
CGGCTGGGGA | 1.03 ± 0.017
CGGCTGTTTT | 1.037 ± 0.0082
CGGCTTTGCC | 0.999 ± 0.016
CGGCTTTTTA | 0.9588 ± 0.0056
CGGCTTTTTG | 0.991 ± 0.034
CGGGAAAAAG | 1.08 ± 0.11
CGGGAAAAGA | 1.58 ± 0.99
CGGGAAAATA | 1.03 ± 0.014
CGGGAAGGCT | 1.06 ± 0.13
CGGGAAGGTA | 0.981 ± 0.016
CGGGACAGCG | 1.01 ± 0.0058
CGGGACAGTT | 1 ± 0.061
CGGGACTCCG | 1.02 ± 0.0032
CGGGACTTTT | 0.982 ± 0.044
CGGGAGCCCA | 1.02 ± 0.044
CGGGAGCGTT | 1.12 ± 0.18
CGGGAGCTGG | 1.02 ± 0.023
CGGGAGGAGG | 1 ± 0.028
CGGGAGGCCT | 1.01 ± 0.062
CGGGAGGGGT | 1.06 ± 0.14
CGGGAGGGTG | 1.04 ± 0.038
CGGGAGGGTT | 1 ± 0.02
CGGGAGTGCT | 0.994 ± 0.019

Sequence | switch fluorescence ratio
CGGGATATGA | 1.03 ± 0.028
CGGGATCGTC | 0.977 ± 0.024
CGGGATGATC | 0.9966 ± 0.0069
CGGGATGGTT | 0.97 ± 0.11
CGGGATGTTA | 0.996 ± 0.016
CGGGATTCGT | 1 ± 0.057
CGGGATTTTT | 0.973 ± 0.054
CGGGCATTAG | 1.209 ± 0.0071
CGGGCCATAG | 1.03 ± 0.044
CGGGCCGCGG | 1.06 ± 0.083
CGGGCGCTGT | 1.06 ± 0.061
CGGGCGGTGG | 0.9829 ± 0.0069
CGGGCGTTGT | 1 ± 0.04
CGGGCTGAGA | 1.045 ± 0.0048
CGGGCTGCGT | 0.962 ± 0.028
CGGGCTGGAG | 1.09 ± 0.079
CGGGCTTGGC | 1.01 ± 0.0022
CGGGCTTGGG | 0.968 ± 0.0031
CGGGGAACTC | 1.06 ± 0.056
CGGGGAAGAT | 0.981 ± 0.016
CGGGGAAGGT | 1 ± 0.031
CGGGGAATTG | 1 ± 0.014
CGGGGAGATC | 1.03 ± 0.062
